± gives the half width of the 95% confidence interval.
Experiments:
[1] = folding stability dG unfold (combined trypsin and chymotrypsin); higher = more stable
In short: (§1)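 Digests were run with trypsin and chymotrypsin at 11 concentrations in threefold dilutions, plus a no-protease condition, on designed mini-proteins in a PA-tagged cDNA display construct. The mini-proteins were under 80 residues, had no cysteine, and were kept only when AlphaFold2 dimer inter-PAE was above 15. After sequencing, Bayesian fitting of the counts gave K50, from which unfolding free energy was derived against a sequence-predicted unfolded-state K50 and a shared folded-state K50, per protease or combined.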

[2] = folding stability dG unfold from trypsin proteolysis; higher = more stable
In short: as §1

[3] = folding stability dG unfold from chymotrypsin proteolysis; higher = more stable
In short: as §1

## SAGGSAGGSAGGPEEPEKLTLRVTLTFYNPETQEPVEEVEVEITLTAEDLKEGKITITPSAGGSAGGSAGGS [r10_672_TrROS_Hall]
[1]
  folding stability dG unfold: 2.32 ± 0.13 kcal/mol
[2]
  folding stability dG unfold: 1.54 ± 0.043 kcal/mol
[3]
  folding stability dG unfold: 2.85 ± 0.07 kcal/mol

## SASSSMSSSSTSRTVPTPEGPVSITITFYPSTGKYTATITDPATSTATTVPSPGSSVEEAIAEAIALLASAG [r14_65_JUSTAS]
[1]
  folding stability dG unfold: 2.21 ± 0.088 kcal/mol
[2]
  folding stability dG unfold: 1.94 ± 0.091 kcal/mol
[3]
  folding stability dG unfold: 2.39 ± 0.022 kcal/mol

## SAGGVIMIPADEILDMIEQNPDEPKTIFARPNNRMVMFTLKIDPDKPDNIEIDNVWRYDPNGKGEHLPSAGG [r13_481_TrROS]
[1]
  folding stability dG unfold: -0.365 ± 0.22 kcal/mol
[2]
  folding stability dG unfold: -0.526 ± 0.47 kcal/mol
[3]
  folding stability dG unfold: -0.475 ± 0.31 kcal/mol

## SAGGSAGGKLKKFKIKEIKIEKNKETNTYTVTITLENGEKLTITAKSKEDAEKALRKLKEAGLLSAGGSAGG [r6_65_TrROS_Hall]
[1]
  folding stability dG unfold: 3.02 ± 0.2 kcal/mol
[2]
  folding stability dG unfold: 2.81 ± 0.086 kcal/mol
[3]
  folding stability dG unfold: 3.39 ± 0.098 kcal/mol

## SAGGSAGGSAPPYKYVQIELWIPGPIEEIADELQDNFGIRSIDVKRDPENGWVRADIYFQFPSAGGSAGGSA [r18_275_TrROS]
[1]
  folding stability dG unfold: 2.26 ± 0.14 kcal/mol
[2]
  folding stability dG unfold: 2.07 ± 0.046 kcal/mol
[3]
  folding stability dG unfold: 2.444 ± 0.024 kcal/mol

## SAGGMPYTLVGEKTESLGEGNTVVTKTYKPPDGTYTVETTTITTDPENGSTSTTSTTTTIPPNTPEALSAGG [r19_173_JUSTAS]
[1]
  folding stability dG unfold: -0.1 ± 0.31 kcal/mol
[2]
  folding stability dG unfold: -1.12 ± 0.34 kcal/mol
[3]
  folding stability dG unfold: 0.334 ± 0.25 kcal/mol

## SAGGSAGGMKYTTTTETSVVEVRTDPKTGTTTRLERVTVTTVDSSGNVLSTTETLEERVDPVPASAGGSAGG [r6_181_JUSTAS]
[1]
  folding stability dG unfold: 2.15 ± 0.039 kcal/mol
[2]
  folding stability dG unfold: 2.1 ± 0.059 kcal/mol
[3]
  folding stability dG unfold: 2.163 ± 0.0081 kcal/mol

## SAGGSAGGSAGGVIVLKSDNSVIIITKKVYTENGKPKKTIIEKKNLKKKPPKPLSIEIISAGGSAGGSAGGS [r10_1043_JUSTAS]
[1]
  folding stability dG unfold: 0.681 ± 0.15 kcal/mol
[2]
  folding stability dG unfold: 0.77 ± 0.067 kcal/mol
[3]
  folding stability dG unfold: 0.374 ± 0.27 kcal/mol

## SAGGSAGGSAGGAEEIARKLAEETGKKVTIRIRLPNGEVYEIELDEPLEEIEGAEIVEIESAGGSAGGSAGG [r7_998_TrROS_Hall]
[1]
  folding stability dG unfold: 1.43 ± 0.061 kcal/mol
[2]
  folding stability dG unfold: 0.639 ± 0.018 kcal/mol
[3]
  folding stability dG unfold: 1.79 ± 0.036 kcal/mol

## GENVPPKTVTVSAPVDPTTGRVTVNPGNTTVSISLPDGADVTLSFSTSMSEEEQLAFVEKEAAALNAALAAS [r1_25_JUSTAS]
[1]
  folding stability dG unfold: 1.18 ± 0.048 kcal/mol
[2]
  folding stability dG unfold: 1.64 ± 0.027 kcal/mol
[3]
  folding stability dG unfold: 0.443 ± 0.055 kcal/mol

## SAGGSAGGSAVITLKPGETITITATITNADGSTVTITEVVRLPDGRLVVRVTNADGETYEFVLSAGGSAGGS [r12_31_TrROS_Hall]
[1]
  folding stability dG unfold: 3.44 ± 0.089 kcal/mol
[2]
  folding stability dG unfold: 3.54 ± 0.16 kcal/mol
[3]
  folding stability dG unfold: 3.3 ± 0.12 kcal/mol

## SAGGSAPARIVLPGGRTRTLRLSEISPELLAAFPDVLVRLPGGEVRRLPADTLLSLEGDYTLVVPGSAGGSA [r15_733_TrMRF]
[1]
  folding stability dG unfold: 0.335 ± 0.099 kcal/mol
[2]
  folding stability dG unfold: -0.262 ± 0.18 kcal/mol
[3]
  folding stability dG unfold: 0.573 ± 0.12 kcal/mol

## SIINALREALKDGKPGQEIPIMMPPDGMGELMNWLQDYGFKPKKMEPMPMNNRPMYTHEFTIDPKNGKFRSA [r9_498_TrROS]
[1]
  folding stability dG unfold: 0.0967 ± 0.29 kcal/mol
[2]
  folding stability dG unfold: -0.0613 ± 0.39 kcal/mol
[3]
  folding stability dG unfold: 0.26 ± 0.26 kcal/mol

## SAGGTVTTEEVDDATYITVTKPSGETLTITAPALPDDTYLVTVYDPKTGKSTTKTVSSLDEAIKLLGSAGGS [r8_230_JUSTAS]
[1]
  folding stability dG unfold: 2.08 ± 0.098 kcal/mol
[2]
  folding stability dG unfold: 2.2 ± 0.076 kcal/mol
[3]
  folding stability dG unfold: 1.83 ± 0.019 kcal/mol

## SAGGSAGGSAGSMAVDLKITISEDPSKPTYTGTVHLPDGTVVTVTSTGSPEELRARLEALLSAGGSAGGSAG [r3_143_JUSTAS]
[1]
  folding stability dG unfold: 1.68 ± 0.088 kcal/mol
[2]
  folding stability dG unfold: 0.0769 ± 0.076 kcal/mol
[3]
  folding stability dG unfold: 1.94 ± 0.044 kcal/mol

## SAGNSNTRYIVRIKIKKYNPETGKIEEIEIDVPISDDDLNIPVEKIIEALKKAFPNTEIEAEITKVPASAGG [r19_189_TrMRF]
[1]
  folding stability dG unfold: 3.74 ± 0.17 kcal/mol
[2]
  folding stability dG unfold: 3.77 ± 0.29 kcal/mol
[3]
  folding stability dG unfold: 3.88 ± 0.13 kcal/mol

## SAKKPLYLIIVKIGPDGKEIVIVAESEEEARKAAEEELRKLFPDLEIKEIKIIPLEKVKTKEEALELLKSAG [r14_900_TrROS_Hall]
[1]
  folding stability dG unfold: 1.89 ± 0.16 kcal/mol
[2]
  folding stability dG unfold: 2.16 ± 0.066 kcal/mol
[3]
  folding stability dG unfold: 1.92 ± 0.07 kcal/mol

## KKEEEIKKLEEAVREALKKKGLEVKIVEVKKNKNGEYTLTIELKDGKKIEITIKKEKMTVEDILKKLKELLS [r1_279_TrROS_Hall]
[1]
  folding stability dG unfold: 4.13 ± 0.18 kcal/mol
[2]
  folding stability dG unfold: 4.13 ± 0.23 kcal/mol
[3]
  folding stability dG unfold: 4.04 ± 0.15 kcal/mol

## SAGGSAGGSAMPFRVKVPPGSRVLVTRYLPGGLEREEVELSEDEDELVVEAESGVVEVRVLDSAGGSAGGSA [r18_124_TrMRF]
[1]
  folding stability dG unfold: 0.977 ± 0.21 kcal/mol
[2]
  folding stability dG unfold: 0.938 ± 0.07 kcal/mol
[3]
  folding stability dG unfold: 0.969 ± 0.28 kcal/mol

## SAGGSAMLDNLVPVGSVTVVERFPDGLLRVVNYTFWRDPESGAWYVSADVEVFPLLPEDPVLLEAGSAGGSA [r15_207_TrMRF]
[1]
  folding stability dG unfold: 3.6 ± 0.11 kcal/mol
[2]
  folding stability dG unfold: 2.24 ± 0.11 kcal/mol
[3]
  folding stability dG unfold: 3.88 ± 0.048 kcal/mol

## SAGMVIVDPKTKKKITFDKESGEIYIEVDGKKKKIKLKPGEKVEIEIIEKDGKLIIKIKANGKIIEIEPSAG [r5_858_TrROS_Hall]
[1]
  folding stability dG unfold: 1.75 ± 0.2 kcal/mol
[2]
  folding stability dG unfold: 1.56 ± 0.17 kcal/mol
[3]
  folding stability dG unfold: 2.09 ± 0.12 kcal/mol

## SAGGSAGGSAGGVPPGAPELRLKVTVTVTTVELDEDTNELTTTTETVTVEVTVKVGETLSAGGSAGGSAGGS [r10_133_TrROS_Hall]
[1]
  folding stability dG unfold: 1.2 ± 0.18 kcal/mol
[2]
  folding stability dG unfold: 0.616 ± 0.11 kcal/mol
[3]
  folding stability dG unfold: 1.17 ± 0.09 kcal/mol

## SAGGSLPPGQWIFMIQLEIEPPNGNTWPFNIMVPPDNVEEQAKEIADRLRENGLKVKIEITDVMPVSAGGSA [r2_274_TrROS]
[1]
  folding stability dG unfold: 3.09 ± 0.13 kcal/mol
[2]
  folding stability dG unfold: 2.22 ± 0.13 kcal/mol
[3]
  folding stability dG unfold: 3.5 ± 0.083 kcal/mol

## SAGMTLTLELPVPPDMSEEEARALALARVREEVAALSPGGATVTPVAVSVDPETGTVSLEVEVEVPPLASAG [r5_146_JUSTAS]
[1]
  folding stability dG unfold: 1.35 ± 0.037 kcal/mol
[2]
  folding stability dG unfold: 1.17 ± 0.032 kcal/mol
[3]
  folding stability dG unfold: 1.45 ± 0.042 kcal/mol

## SAGSMPPSTTTSEEVTVGGKKVKRTTTVYRAPNGTPSVTSTYTLGETPGVEDPLSGKALTPEERAAAAASAG [r5_138_JUSTAS]
[1]
  folding stability dG unfold: 0.668 ± 0.16 kcal/mol
[2]
  folding stability dG unfold: 0.417 ± 0.21 kcal/mol
[3]
  folding stability dG unfold: 0.564 ± 0.28 kcal/mol

## SAIPINLPPGDKVKITFRNPDGSRMEIEFDPENGKWKVKMRPNDGKKQEQTIPAGNLDDLPPGVYSIEPVSA [r9_1110_TrROS]
[1]
  folding stability dG unfold: 1.33 ± 0.26 kcal/mol
[2]
  folding stability dG unfold: 1.08 ± 0.16 kcal/mol
[3]
  folding stability dG unfold: 1.78 ± 0.27 kcal/mol

## SAGGSMRLVKITVTTLEPSAEAIAAGAPTPVTLIEREVSSEEEVEEFIKSLPPNVEVSVERLPPPASAGGSA [r2_25_JUSTAS]
[1]
  folding stability dG unfold: 2.04 ± 0.12 kcal/mol
[2]
  folding stability dG unfold: 1.66 ± 0.11 kcal/mol
[3]
  folding stability dG unfold: 2.16 ± 0.03 kcal/mol

## SAGGSAGGSAGRRVTINHNPENGFFRVKVYPPKGKSQVYPIPMENLEEIKKNLPPGVEIVSAGGSAGGSAGG [r11_569_TrROS]
[1]
  folding stability dG unfold: -0.102 ± 0.12 kcal/mol
[2]
  folding stability dG unfold: 0.206 ± 0.12 kcal/mol
[3]
  folding stability dG unfold: -0.511 ± 0.24 kcal/mol

## SAGGSAGGSAGGMLILVEVNGEKRLLEADSLEDALAKLPPGATVTRVEIFEVEEVELPESAGGSAGGSAGGS [r10_13_TrROS_Hall]
[1]
  folding stability dG unfold: 2.15 ± 0.068 kcal/mol
[2]
  folding stability dG unfold: 2.36 ± 0.067 kcal/mol
[3]
  folding stability dG unfold: 2 ± 0.059 kcal/mol

## SAGGSAGGSLKPGQPYIMIRIKIQHPNGNTRTFNIMVPWNDIPQILDFLESHGFKIKDIEIFPSAGGSAGGS [r12_986_TrROS]
[1]
  folding stability dG unfold: 5.09 ± 0.2 kcal/mol
[2]
  folding stability dG unfold: 3.94 ± 0.21 kcal/mol
[3]
  folding stability dG unfold: 5.42 ± 0.17 kcal/mol

## SAGGSAGGSEKIIEELKKKFPGLKIDKIEITVKKKKITIELKPPPKVYLTKEELEKKGYKIEKSAGGSAGGS [r12_3_TrROS_Hall]
[1]
  folding stability dG unfold: 0.87 ± 0.22 kcal/mol
[2]
  folding stability dG unfold: 1.33 ± 0.041 kcal/mol
[3]
  folding stability dG unfold: 0.449 ± 0.33 kcal/mol

— the supplement of paper PMC12764529
